According to patent publication US20140286963A1 (Genentech, published 2014):
Positions count from the first letter of the chain named.

Tests used:
[1] = target: T1, human BACE1 extracellular domain, amino acids 1-457 of SEQ ID NO:49 (human, UniProt P56817 22-457, biotinylated in the phage sorting, phage ELISAs and the competition ELISA (sites not given)); assay: cell-based or functional assay
[2] = target: T1, human BACE1 extracellular domain, amino …; assay: one-point phage competition ELISA: ratio of the ELISA signal of Fab-displaying phage on plate-immobilized BACE1 without / with 20 nM BACE1 in solution
Method: (§1) Screening of the libraries for affinity maturation of initially obtained antibodies was carried out similarly as described above. […] For rounds 2 and 3, 20 nM and 5 nM biotinylated BACE1 was incubated with amplified phage, respectively. Clones (96) from each of the two libraries were screened in a one-point competition ELISA, where 20 nM of BACE1 was used in solution to compete the phage particle from binding to plate-immobilized BACE1 as described below.
(§2) A plate immobilized with BACE1 was prepared by capturing 2 μg/ml biotinylated BACE1 for 15 min using a 384-well Maxisorp Immunoplate that was previously coated with 2 μg/ml of Neutravidin at 4° C. for overnight and blocked with Blocking Buffer. The culture supernatants from individual clones grown in a 96-well format were diluted 20-fold in PBT buffer and was incubated with or without 20 nM BACE1 at room temperature for 1 h. The mixture was transferred to the plate with immobilized BACE1 and incubated for 15 min. The plate was washed six times by PT buffer and the bound phage was detected by anti-M13-HRP as described above. The ratio between the ELISA signal from the well in the absence and the presence of BACE1 in solution indicates the affinity of the clone, where higher ratios indicate the higher affinities.

[3] = target: T1, human BACE1 extracellular domain, amino …; assay: phage competition ELISA: Fab-displaying phage on plate-immobilized BACE1, serial dilutions of BACE1 in solution
Method: (§3) Single colonies (in XL1 blue cells) of the selected clones were picked up and grown in 1 ml 2YT broth supplemented with 50 μg/ml carbenicillin, 10 μg/ml tetracycline and M13KO7 at 37° C. for 2 h. Kanamycin (25 μg/ml) was added to the culture, which continued to grow for 6 h. The culture was transferred to 30 ml 2YT broth supplemented with 50 μg/ml carbenicillin and 25 μg/mlkanamycin and grown at 37° C. overnight. Phage were harvested and purified as previously described (Sidhu, S. S. et al. Methods Enzymol. 328: 333-363 (2000)). The purified Fab-displaying phage were serially diluted in PBT buffer and tested for binding to BACE1 immobilized on a plate. A fixed phage concentration that gives 80% of saturation signals was selected for the subsequent competition ELISA. The competition was conducted by incubating the fixed, sub-saturating Fab-displaying phage with serial dilutions of BACE1 for 1 h and then transferred to the BACE1-immobulized plate for 15 min to capture unbound phage. The plate was then washed for 8 times and bound phage were detected by anti-M13-HRP.
(§4) To estimate the affinity of these 6 clones, phage competition ELISAs were performed, as described above, and IC₅₀ values were determined (FIG. 7). The IC₅₀ values were determined by fitting the data to a four-parameter logistic equation developed by Marquardt (Marquardt, D. W. SIAM J. Appl. Math. 11: 431-441 (1963)) using Kaleidagraph (Synergy Software) and are shown below in Table 2.

[4] = target: T1, human BACE1 extracellular domain, amino …; assay: phage competition ELISA IC50, against parent Fab5
Method: as §3, with “The competition was conducted by incubating the fixed, sub-saturating Fab-displaying phage with serial dilutions of BACE1 for 1 h and then transferred to the BACE1-immobulized plate for 15 min to capture unbound phage.” left out
as §4

[5] = target: T1, human BACE1 extracellular domain, amino …; assay: one-point competition phage ELISA, plate-immobilized BACE1, 20 nM BACE1 in solution
Method: as §1, §2

[6] = target: T1, human BACE1 extracellular domain, amino …; assay: phage competition ELISA IC50; parent, reference for LC9, LC10 and LC6
[7] = target: T1, human BACE1 extracellular domain, amino …; assay: phage competition ELISA: Fab-displaying phage incubated with serial dilutions of BACE1 in solution, unbound phage captured on plate-immobilized BACE1, anti-M13-HRP, OD450
Method: as §3, with “The competition was conducted by incubating the fixed, sub-saturating Fab-displaying phage with serial dilutions of BACE1 for 1 h and then transferred to the BACE1-immobulized plate for 15 min to capture unbound phage.” left out
as §4

[8] = target: T1, human BACE1 extracellular domain, amino …; assay: cell-based or functional assay; remark: listed apart in the source
Guinea pig BACE1 = target: T2, Guinea pig BACE1 (Guinea pig); assay: SPR (BIAcore-3000), IgG captured by anti-human Fc antibody, pH 7.0
T2 construct: The method text names only the human and murine ECD; The guinea pig construct is not described

[9] = target: T1, human BACE1 extracellular domain, amino …; assay: SPR (BIAcore-3000), second unlabelled row under Human, IgG captured by anti-human Fc antibody, pH 7.0
Method: (§5) Association rates (kₒₙ) and dissociation rates (koff) were calculated using a simple one-to-one Langmuir binding model (BIAcore™ Evaluation Software version 3.2). The equilibrium dissociation constant (KD) was calculated as the ratio koff/kₒₙ.

[10] = target: T3, human BACE2 extracellular domain (human, UniProt Q9Y5Z0 21-473); assay: SPR
T3 construct: extracellular domain; The extracellular domain is stated for the MCE enzyme assay; also called human recombinant BACE2 extracellular domain
T3 sequence (looked up): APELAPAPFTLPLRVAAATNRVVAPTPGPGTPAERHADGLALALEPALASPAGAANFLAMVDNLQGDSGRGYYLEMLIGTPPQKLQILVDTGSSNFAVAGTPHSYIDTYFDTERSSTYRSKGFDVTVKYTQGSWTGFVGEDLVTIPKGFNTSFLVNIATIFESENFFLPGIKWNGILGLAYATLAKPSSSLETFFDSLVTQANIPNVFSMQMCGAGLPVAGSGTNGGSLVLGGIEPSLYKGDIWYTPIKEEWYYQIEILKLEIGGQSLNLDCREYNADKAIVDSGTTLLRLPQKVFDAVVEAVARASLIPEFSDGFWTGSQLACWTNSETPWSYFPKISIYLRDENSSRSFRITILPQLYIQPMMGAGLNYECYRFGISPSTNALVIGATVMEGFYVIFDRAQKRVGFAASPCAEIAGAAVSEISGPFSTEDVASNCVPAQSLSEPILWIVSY

[11] = target: BACE1 of 293-HEK cells stably expressing wild-type human APP (UniProt P56817 46-501); assay: cell-based or functional assay
BACE1 of 293-HEK cells stably expressing wild-type human APP, sequence (P56817 46-501): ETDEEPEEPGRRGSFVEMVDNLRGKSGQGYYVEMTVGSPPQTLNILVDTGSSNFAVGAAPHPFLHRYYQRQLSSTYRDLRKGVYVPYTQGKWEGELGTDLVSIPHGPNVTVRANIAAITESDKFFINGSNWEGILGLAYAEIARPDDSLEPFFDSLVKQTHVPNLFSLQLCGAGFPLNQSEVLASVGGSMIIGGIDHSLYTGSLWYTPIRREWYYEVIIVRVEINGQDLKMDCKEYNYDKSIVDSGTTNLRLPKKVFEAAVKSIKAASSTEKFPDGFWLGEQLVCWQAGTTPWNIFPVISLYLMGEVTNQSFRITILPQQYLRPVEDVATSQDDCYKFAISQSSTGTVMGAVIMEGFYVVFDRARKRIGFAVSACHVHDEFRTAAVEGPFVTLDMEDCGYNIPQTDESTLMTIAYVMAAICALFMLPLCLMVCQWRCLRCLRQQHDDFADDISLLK

[12] = target: BACE1 of primary mouse neurons (mouse, UniProt P56818 46-501); assay: cell-based or functional assay
BACE1 of primary mouse neurons, sequence (P56818 46-501): as the sequence (P56817 46-501) above, with P6S, V162I, L165I, S180T, V182A, I340V, L393A, Q443H counted along it

[13] = target: T1, human BACE1 extracellular domain, amino …; assay: SPR (BIAcore-3000), IgG captured by anti-human Fc antibody, BACE1 ECD injected, 25 C, pH 7.0
Method: as §5

[14] = target: T1, human BACE1 extracellular domain, amino …; assay: phage competition ELISA IC50, against parent Fab14

T1 sequence (P56817 22-457): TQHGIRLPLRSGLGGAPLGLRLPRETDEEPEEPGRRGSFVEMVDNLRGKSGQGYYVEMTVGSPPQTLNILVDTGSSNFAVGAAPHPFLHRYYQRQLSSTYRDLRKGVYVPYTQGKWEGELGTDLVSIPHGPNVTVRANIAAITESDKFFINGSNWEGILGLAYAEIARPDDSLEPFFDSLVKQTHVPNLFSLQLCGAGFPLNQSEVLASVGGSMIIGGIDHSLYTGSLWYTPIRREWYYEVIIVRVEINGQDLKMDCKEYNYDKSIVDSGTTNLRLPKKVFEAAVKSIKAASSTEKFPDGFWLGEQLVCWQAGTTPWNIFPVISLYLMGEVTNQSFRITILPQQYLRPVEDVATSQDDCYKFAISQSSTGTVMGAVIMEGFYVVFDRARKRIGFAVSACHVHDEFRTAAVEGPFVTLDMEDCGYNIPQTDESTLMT

B1: Fab LC 4 (Fab, V domains shown)
VH: EVQLVESGGGLVQPGGSLRLSCAASGFNLSYSYIHWVRQAPGKGLEWVASIYSSYGSTYYADSVKGRFTISADTSKNTAYLQMNSLRAEDTAVYYCARSYHHSDKYYYAWSYALDYWGQGTLVTVSS
VL: DIQMTQSPSSLSASVGDRVTITCRASQSVSSAVAWYQQKPGKAPKLLIYSASSLYSGVPSRFSGSGSGTDFTLTISSLQPEDFATYYCQQYSYSLLTFGQGTKVEIK
**Q.** B1 was tested. Which “IC50 (nM), HTRF enzyme activity assay” value [1] did it give?
**A.** 480 nM

**Q.** What about the “Competition ELISA Ratio” value [2] of the same binder?
**A.** 6.3

**Q.** And the IC50 [3]?
**A.** 0.46 nM

**Q.** And the Fold affinity improvement [4]?
**A.** 45 fold

**Q.** And the “ratio of ELISA signal in the absence to the presence of BACE1 in solution” value [5]?
**A.** > 4 ratio

B2: Fab 12 (Fab, V domains shown)
VH: EVQLVESGGGLVQPGGSLRLSCAASGFNFYYSSIHWVRQAPGKGLEWVASISPYSGYTSYADSVKGRFTISADTSKNTAYLQMNSLRAEDTAVYYCARQPTHYYYYAKGYKAMDYWGQGTLVTVSS
VL: B1 VL with L95P, L96F
**Q.** How did the Fold affinity improvement [6] turn out when B2 was run?
**A.** 1 fold

**Q.** And the IC50 [3]?
**A.** 45.3 nM

B3: Fab LC 6 (Fab, V domains shown)
VH: B2 VH
VL: B1 VL with Y49S, S50W, S53W, L95P, L96F
**Q.** B3 was tested. Which “IC50 (read off the curve)” value [7] did it give?
**A.** ~0.3 nM

**Q.** What about the “IC50 (nM), HTRF enzyme activity assay” value [1] of the same binder?
**A.** 160 nM

**Q.** What about the “improvement in inhibition activity against parent Fab 12, HTRF enzyme activity assay” value (from here on “improvement in inhibition activity”) [8] of the same binder?
**A.** ~20 fold

B4: YW412.8.31 anti-BACE1 human IgG (antibody, V domains shown)
VH: EVQLVESGGGLVQPGGSLRLSCAASGFTFLGYGIHWVRQAPGKGLEWVGWISPAGGSTDYADSVKGRFTISADTSKNTAYLQMNSLRAEDTAVYYCARGPFSPWVMDYWGQGTLVTVSS
VL: B1 VL with S28D, S31T, S53F, Y91F, S92P, Y93T, S94Y, L96P
notes: also called YW412.8.31 antibody
**Q.** Which results are given for B4?
**A.** Kd (Guinea pig BACE1): 2.6 nM; koff (Guinea pig BACE1): 0.00027 s⁻¹; kon (Guinea pig BACE1): 100000 M⁻¹ s⁻¹; Kd [9]: 1.32 nM; koff [9]: 0.000139 s⁻¹; kon [9]: 105000 M⁻¹ s⁻¹; binding result [10]: no binding; IC50, Aβ1-40 production in APP-expressing 293 cells [11]: 17 nM; IC50, Aβ40 production in DRG neurons [12]: 8.4 nM; IC50, Aβ40 production in cortical and hippocampal neurons [12]: 2.3 to 2.6 nM; IC50, HTRF long peptide assay [8]: 1.7 nM; IC50, microfluidic capillary electrophoresis assay [8]: 0.08 nM; IC50, short FRET peptide assay [8]: 17 nM; Kd [13]: 2.9 nM; koff [13]: 0.00031 s⁻¹; kon [13]: 110000 M⁻¹ s⁻¹

B5: Fab LC10 (Fab, V domains shown)
VH: B2 VH
VL: B1 VL with Y49W, S50W, L95P, L96F
**Q.** For B5, which “improvement in inhibition activity” value [8] is on record?
**A.** ~20 fold

B6: Fab LC 9 (Fab, V domains shown)
VH: B2 VH
VL: B1 VL with Y49W, S50Y, S53W, L95P, L96F
**Q.** How did the “IC50 (nM), HTRF enzyme activity assay” value [1] turn out when B6 was run?
**A.** 140 nM

**Q.** What about the “improvement in inhibition activity” value [8] of the same binder?
**A.** ~20 fold

B7: Fab LC 40 (Fab, V domains shown)
VH: EVQLVESGGGLVQPGGSLRLSCAASGFNVSSSSMHWVRQAPGKGLEWVASIYPYSSSTSYADSVKGRFTISADTSKNTAYLQMNSLRAEDTAVYYCARYSYYSYGIDYWGQGTLVTVSS
VL: DIQMTQSPSSLSASVGDRVTITCRASQYSYSYSVAWYQQKPGKAPKLLISYASYLYSGVPSRFSGSGSGTDFTLTISSLQPEDFATYYCQQYSYSYSPITFGQGTKVEIK
**Q.** Which “Competition ELISA Ratio” value [2] does the source give for B7 here?
**A.** 3

**Q.** And the Fold affinity improvement [14]?
**A.** 3 fold

**Q.** What about the IC50 [3] of the same binder?
**A.** 4.7 nM

**Q.** What about the “ratio of ELISA signal in the absence to the presence of BACE1 in solution” value [5] of the same binder?
**A.** > 3 ratio
